Residue numbers refer to the chain shown, from its start. Names may count otherwise.
Assays:
GLD-1-STAR [1] = target: T1, GLD-1-STAR (C. elegans, UniProt Q17339 135-336); assay: competition FP; details: probe TGE; 10 mM Tris pH 8.0, 25 mM NaCl, 0.1 mM EDTA, 0.1 mg/mL tRNA, 5 ug/mL heparin, 0.01% IGEPAL CA630, room temperature, 3 h; EMSA gel 6% native, 0.5x TBE, 4 C
T1 sequence: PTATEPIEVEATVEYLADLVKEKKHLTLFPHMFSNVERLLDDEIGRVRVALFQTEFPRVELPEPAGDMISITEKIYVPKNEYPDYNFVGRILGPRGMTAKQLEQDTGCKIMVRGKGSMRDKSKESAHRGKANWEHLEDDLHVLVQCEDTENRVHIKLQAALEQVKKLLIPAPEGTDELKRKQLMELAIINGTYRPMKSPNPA

STAR-2-STAR (C. elegans) [2] = assay: competition FP; details: probe TGE; 10 mM Tris pH 8.0, 25 mM NaCl, 0.1 mM EDTA, 0.1 mg/mL tRNA, 5 ug/mL heparin, 0.01% IGEPAL CA630, room temperature, 3 h; EMSA gel 6% native, 0.5x TBE, 4 C
STAR-2-STAR (C. elegans) [3] = assay: EMSA; details: 10 mM Tris pH 8.0, 25 mM NaCl, 0.1 mM EDTA, 0.1 mg/mL tRNA, 5 ug/mL heparin, 0.01% IGEPAL CA630, room temperature, 3 h; EMSA gel 6% native, 0.5x TBE, 4 C
STAR-2-STAR (C. elegans) [4] = assay: fluorescence polarization; details: 10 mM Tris pH 8.0, 25 mM NaCl, 0.1 mM EDTA, 0.1 mg/mL tRNA, 5 ug/mL heparin, 0.01% IGEPAL CA630, room temperature, 3 h; EMSA gel 6% native, 0.5x TBE, 4 C
GLD-1-STAR [5] = target: T1, GLD-1-STAR; assay: competition FP; probe TGE; 10 mM Tris pH 8.0, 25 mM NaCl, 0.1 mM EDTA, 0.1 mg/mL tRNA, 5 ug/mL heparin, 0.01% IGEPAL CA630, room temperature, 3 h; EMSA gel 6% native, 0.5x TBE, 4 C; details: protein: recombinant, tags: MBP fusion, chain copies: 2
Qk-1-STAR [6] = target: T2, Qk-1-STAR (mouse, UniProt Q9QYS9 7-214); assay: EMSA; second shift (K2); 10 mM Tris pH 8.0, 25 mM NaCl, 0.1 mM EDTA, 0.1 mg/mL tRNA, 5 ug/mL heparin, 0.01% IGEPAL CA630, room temperature, 3 h; EMSA gel 6% native, 0.5x TBE, 4 C; details: protein: recombinant; tags: MBP fusion; chain copies: 2; label: 5' 32P
T2 sequence: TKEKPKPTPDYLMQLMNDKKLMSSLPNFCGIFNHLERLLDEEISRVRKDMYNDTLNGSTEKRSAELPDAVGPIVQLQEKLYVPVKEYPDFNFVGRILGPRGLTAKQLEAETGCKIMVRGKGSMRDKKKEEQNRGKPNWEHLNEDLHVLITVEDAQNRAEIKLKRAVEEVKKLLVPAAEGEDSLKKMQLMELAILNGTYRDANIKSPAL

Qk-1-STAR [7] = target: T2, Qk-1-STAR; assay: EMSA; first shift (K1); 10 mM Tris pH 8.0, 25 mM NaCl, 0.1 mM EDTA, 0.1 mg/mL tRNA, 5 ug/mL heparin, 0.01% IGEPAL CA630, room temperature, 3 h; EMSA gel 6% native, 0.5x TBE, 4 C; details: protein: recombinant; tags: MBP fusion; chain copies: 2; label: 5' 32P
Qk-1-STAR [8] = target: T2, Qk-1-STAR; assay: competition FP; probe C21A TGE; 10 mM Tris pH 8.0, 25 mM NaCl, 0.1 mM EDTA, 0.1 mg/mL tRNA, 5 ug/mL heparin, 0.01% IGEPAL CA630, room temperature, 3 h; EMSA gel 6% native, 0.5x TBE, 4 C; details: protein: recombinant; tags: MBP fusion; chain copies: 2
GLD-1-STAR [9] = target: T1, GLD-1-STAR; assay: competition FP; slightly tighter than WT 12-mer; 10 mM Tris pH 8.0, 25 mM NaCl, 0.1 mM EDTA, 0.1 mg/mL tRNA, 5 ug/mL heparin, 0.01% IGEPAL CA630, room temperature, 3 h; EMSA gel 6% native, 0.5x TBE, 4 C; details: protein: recombinant; tags: MBP fusion; chain copies: 2
GLD-1-STAR [10] = target: T1, GLD-1-STAR; assay: competition FP; probe TGE; 10 mM Tris pH 8.0, 25 mM NaCl, 0.1 mM EDTA, 0.1 mg/mL tRNA, 5 ug/mL heparin, 0.01% IGEPAL CA630, room temperature, 3 h; EMSA gel 6% native, 0.5x TBE, 4 C; details: protein: recombinant; tags: MBP fusion; chain copies: 2
Qk-1-STAR [11] = target: T2, Qk-1-STAR; assay: EMSA; 10 mM Tris pH 8.0, 25 mM NaCl, 0.1 mM EDTA, 0.1 mg/mL tRNA, 5 ug/mL heparin, 0.01% IGEPAL CA630, room temperature, 3 h; EMSA gel 6% native, 0.5x TBE, 4 C; details: protein: recombinant, tags: MBP fusion, chain copies: 2
Qk-1-STAR [12] = target: T2, Qk-1-STAR; assay: fluorescence polarization; 10 mM Tris pH 8.0, 25 mM NaCl, 0.1 mM EDTA, 0.1 mg/mL tRNA, 5 ug/mL heparin, 0.01% IGEPAL CA630, room temperature, 3 h; EMSA gel 6% native, 0.5x TBE, 4 C; details: protein: recombinant; tags: MBP fusion; chain copies: 2; label: 5' 32P (EMSA), 5' fluorescein (FP)
GLD-1-STAR [13] = target: T1, GLD-1-STAR; assay: as above; details: protein: recombinant; tags: MBP fusion; chain copies: 2; label: 5' 32P (EMSA), 5' fluorescein (FP)
GLD-1-STAR [14] = target: T1, GLD-1-STAR; assay: fluorescence polarization; slightly tighter than WT TGE; 10 mM Tris pH 8.0, 25 mM NaCl, 0.1 mM EDTA, 0.1 mg/mL tRNA, 5 ug/mL heparin, 0.01% IGEPAL CA630, room temperature, 3 h; EMSA gel 6% native, 0.5x TBE, 4 C; details: protein: recombinant; tags: MBP fusion; chain copies: 2; label: 5' 32P (EMSA), 5' fluorescein (FP)
[15] = label: 5' 32P (EMSA), 5' fluorescein (FP)

Question: How did the Ki (GLD-1-STAR [1]) turn out when poly-U, two hexamers, 4-nt spacing was run?
Answer: Its Ki is 12.2 nM.

Question: Which results are given for “AUCUACUAAUAU [C21A (A21) half-site 12-mer]”?
Answer: IC50 ratio (IC50 TGE/C21A 12-mer) (STAR-2-STAR (C. elegans) [2]): 2.7; IC50 ratio, WT half-site vs mutant probe (IC50 WT half-site/C21A) (STAR-2-STAR (C. elegans) [2]): 20

Question: poly-U, one hexamer at 5' end was tested. Which Ki (GLD-1-STAR [1]) did it give?
Answer: Its Ki is 110 nM.

Question: “AUCUAAUCAUAU [C19A 12-mer (WT background)]” was tested. Which IC50 ratio, WT half-site vs mutant probe (IC50 WT half-site/C19A) (STAR-2-STAR (C. elegans) [2]) did it give?
Answer: Its IC50 ratio, WT half-site vs mutant probe (IC50 WT half-site/C19A) is 4.2.

Question: Which results are given for “UAUUUAAUUUCUUAUCUACUCAUAUCUA [WT TGE 28-mer]”?
Answer: Kd (STAR-2-STAR (C. elegans) [3]): 36 nM; Kd (STAR-2-STAR (C. elegans) [4]): 40 nM

Question: With “AUCUACUCAUAU [WT TGE half-site 12-mer (14-25; A21C in the A21 background)]” as the molecule, how does the IC50 ratio (IC50 TGE/WT half-site) (STAR-2-STAR (C. elegans) [2]) read?
Answer: The IC50 ratio (IC50 TGE/WT half-site) was 0.13.

Question: How did the Ki (GLD-1-STAR [1]) turn out when poly-U, two hexamers, 12-nt spacing was run?
Answer: The Ki was 4.8 nM.

Question: “UAUUUAAUUUCUUAUCUACUAAUAUCUA [C21A TGE 28-mer]” was tested. Which Kd (STAR-2-STAR (C. elegans) [3]) did it give?
Answer: The Kd was 1.2 nM.

Question: What about the Kd (STAR-2-STAR (C. elegans) [4]) of the same molecule?
Answer: The Kd was 5 nM.

Question: How did the Ki (GLD-1-STAR [1]) turn out when poly-U, two hexamers, 0-nt spacing was run?
Answer: Its Ki is 25.3 nM.

Question: With poly-U, two hexamers, 2-nt spacing as the molecule, how does the Ki (GLD-1-STAR [1]) read?
Answer: The Ki was 22.7 nM.

B1: TGE 46-67 (ssRNA)
RNA: AUCUACUCAUAUCUAAUCGUCC
Question: How did the Ki (GLD-1-STAR [5]) turn out when B1 was run?
Answer: The Ki was 10.7 ± 2 nM.

B2: MBP:2-3'm2 (ssRNA)
RNA: GACACACUAACCUCGGUGGAAACUCUUACAU
Question: What does the source list for B2?
Answer: Kd (Qk-1-STAR [6]): 199 nM; Kd (Qk-1-STAR [7]): 69 nM

B3: C19A 12-mer (A21 background) (ssRNA)
RNA: AUCUAAUAAUAU
Question: Does B3 bind (Qk-1-STAR [8])?
Answer: Result: no binding

B4: C21A (A21) half-site 12-mer (ssRNA)
RNA: AUCUACUAAUAU
Question: For B4, which Ki (Qk-1-STAR [8]) is on record?
Answer: Its Ki is 46 nM.

Question: Does B4 bind (GLD-1-STAR [9])?
Answer: Result: binds

B5: TGE 1-18 (ssRNA)
RNA: UAUUUAAUUUCUUAUCUA
Question: With B5 as the molecule, how does the binding signal (GLD-1-STAR [10]) read?
Answer: The binding signal was 42 fold weaker than TGE.

B6: WT TGE half-site 12-mer (14-25; A21C in the A21 background) (ssRNA)
RNA: AUCUACUCAUAU
Question: B6 was tested. Which binding signal (GLD-1-STAR [10]) did it give?
Answer: The binding signal was roughly 9 fold weaker than TGE.

Question: Does B6 bind (Qk-1-STAR [8])?
Answer: Result: no binding

B7: MBP:2-5'm1 (ssRNA)
RNA: GACACUCGGUGCUCGGUGGAAAAAUAACCAU
Question: With B7 as the molecule, how does the Kd (Qk-1-STAR [11]; label: 5' 32P, predicted secondary structure (mfold)) read?
Answer: Its Kd is 498 nM.

B8: WT TGE 28-mer (ssRNA)
RNA: UAUUUAAUUUCUUAUCUACUCAUAUCUA
Question: Which results are given for B8?
Answer: Ki (GLD-1-STAR [5]; [15]): 11.1 ± 4 nM; Kd (Qk-1-STAR [11]; [15]): 49 ± 2 nM; Kd (Qk-1-STAR [12]): 63 ± 4 nM; Kd (GLD-1-STAR [13]): 32 ± 3 nM

B9: MBP:2 (WT) (ssRNA)
RNA: GACACACUAACCUCGGUGGAAAAAUAACCAU
Question: B9 was tested. Which Kd (Qk-1-STAR [6]) did it give?
Answer: The Kd was 269 ± 122 nM.

Question: And the Kd (Qk-1-STAR [7])?
Answer: The Kd was 24.5 ± 5 nM.

B10: MBP:2-5'm2 (ssRNA)
RNA: B9 RNA with A6U, A9C, A10U
Question: How did the Kd (Qk-1-STAR [11]; label: 5' 32P) turn out when B10 was run?
Answer: The Kd was 100 nM.

B11: poly-U 28-mer (ssRNA)
RNA: UUUUUUUUUUUUUUUUUUUUUUUUUUUU
Question: Does B11 bind (GLD-1-STAR [5])?
Answer: Result: no binding

B12: TGE 14-35 (ssRNA)
RNA: AUCUACUCAUAUCUACUCAUAU
Question: With B12 as the molecule, how does the Ki (GLD-1-STAR [5]) read?
Answer: The Ki was 4.6 ± 0.8 nM.

B13: TGE 56-67 (ssRNA)
RNA: AUCUAAUCGUCC
Question: B13 was tested. Which binding signal (GLD-1-STAR [10]) did it give?
Answer: Its binding signal is 32 fold weaker than TGE.

B14: C21A TGE 5' mutant (ssRNA)
RNA: UAUUCUCUUUCUUAUCUACUAAUAUCUA
Question: Which Kd (Qk-1-STAR [11]; label: 5' 32P) does the source give for B14 here?
Answer: Its Kd is 7.1 ± 1 nM.

B15: C21A TGE 28-mer (ssRNA)
RNA: UAUUUAAUUUCUUAUCUACUAAUAUCUA
Question: What does the source list for B15?
Answer: binding result (GLD-1-STAR [14]): binds; Kd (Qk-1-STAR [11]; [15]): 1.2 ± 0.2 nM; Kd (Qk-1-STAR [12]): 13 ± 2 nM

From publication PMC2905418, “High-affinity consensus binding of target RNAs by the STAR/GSG proteins GLD-1, STAR-2 and Quaking”
